According to patent US8586357B2, “Markers of definitive endoderm” (ViaCyte, Inc., priority 2003, dated 2013):

Tests used:
Type in all cases: cell-based, human
hESCs (hESCyt-25) = assay: Q-PCR gene expression assay of marker genes in differentiating hESCs; settings: for suppression of AFP gene expression: in comparison to no treatment (10% FBS alone), FIG. 8A
Procedure: In the following experiments, real-time quantitative RT-PCR (Q-PCR) was the primary assay used for screening the effects of various treatments on HESC differentiation. In particular, real-time measurements of gene expression were analyzed for multiple marker genes at multiple time points by Q-PCR. Marker genes characteristic of the desired as well as undesired cell types were evaluated to gain a better understanding of the overall dynamics of the cellular populations. The strength of Q-PCR analysis includes its extreme sensitivity and relative ease of developing the necessary markers, as the genome sequence is readily available. Furthermore, the extremely high sensitivity of Q-PCR permits detection of gene expression from a relatively small number of cells within a much larger population. In addition, the ability to detect very low levels of gene expression provides indications for “differentiation bias” within the population. The bias towards a particular differentiation pathway, prior to the overt differentiation of those cellular phenotypes, is unrecognizable using immunocytochemical techniques. […] Additionally, Q-PCR provides a mechanism by which to evaluate the success of a differentiation protocol in a quantitative format at semi-high throughput scales of analysis.
The approach taken here was to perform relative quantitation using SYBR Green chemistry on a Rotor Gene 3000 instrument (Corbett Research) and a two-step RT-PCR format. Such an approach allowed for the banking of cDNA samples for analysis of additional marker genes in the future, thus avoiding variability in the reverse transcription efficiency between samples.
Primers were designed to lie over exon-exon boundaries or span introns of at least 800 bp when possible, as this has been empirically determined to eliminate amplification from contaminating genomic DNA.
We routinely used Q-PCR to measure the gene expression of multiple markers of target and non-target cell types in order to provide a broad profile description of gene expression in cell samples. The markers relevant for the early phases of hESC differentiation (specifically ectoderm, mesoderm, definitive endoderm and extra-embryonic endoderm) and for which validated primer sets are available are provided below in Table 1. […] This is an important fact since the hESCs were often grown on mouse feeder layers. Most typically, triplicate samples were taken for each condition and independently analyzed in duplicate to assess the biological variability associated with each quantitative determination.
To generate PCR template, total RNA was isolated using RNeasy (Qiagen) and quantitated using RiboGreen (Molecular Probes). Reverse transcription from 350-500 ng of total RNA was carried out using the iScript reverse transcriptase kit (BioRad), which contains a mix of oligo-dT and random primers. Each 20 μL reaction was subsequently diluted up to 100 μL total volume and 3 μL was used in each 10 μL Q-PCR reaction containing 400 nM forward and reverse primers and 5 μL 2×SYBR Green master mix (Qiagen). Two step cycling parameters were used employing a 5 second denature at 85-94° C. (specifically selected according to the melting temp of the amplicon for each primer set) followed by a 45 second anneal/extend at 60° C. Fluorescence data was collected during the last 15 seconds of each extension phase. A three point, 10-fold dilution series was used to generate the standard curve for each run and cycle thresholds (Ct's) were converted to quantitative values based on this standard curve. The quantitated values for each sample were normalized to housekeeping gene performance and then average and standard deviations were calculated for triplicate samples. At the conclusion of PCR cycling, a melt curve analysis was performed to ascertain the specificity of the reaction. A single specific product was indicated by a single peak at the Tm appropriate for that PCR amplicon. […]

hESCs [1] = assay: AFP antibody-labeled cell number by flow cytometry; settings: presence vs absence of activin A; FIGS. 9A-B
Excerpt: As a further evidence of the specificity of the SOX17^hi/AFP^lo/TM^lo/SPARC^lo marker profile as predictive of definitive endoderm, SOX17 and AFP gene expression was quantitatively compared to the relative number of antibody labeled cells.

hESCs [2] = assay: CXCR4+ cell number by flow cytometry (FACS); settings: 0, 10 or 100 ng/mL; 7 days; 0.5%-2% FBS; FIGS. 30A-C
Procedure: hESCs were differentiated in RPMI media supplemented with 0.5%-2% FBS (increased from 0.5% to 1.0% to 2.0% over the first 3 days of differentiation) and either 0, 10, or 100 ng/mL of activin A. After 7 days of differentiation the cells were dissociated in PBS without Ca^2+/Mg^2+ containing 2% FBS and 2 mM (EDTA) for 5 minutes at room temperature. The cells were filtered through 35 um nylon filters, counted and pelleted. Pellets were resuspended in a small volume of 50% human serum/50% normal donkey serum and incubated for 2 minutes on ice to block non-specific antibody binding sites. To this, 1 uL of mouse anti-CXCR4 antibody (Abeam, cat# ab10403-100) was added per 50 uL (containing approximately 10^5 cells) and labeling proceeded for 45 minutes on ice. Cells were washed by adding 5 mL of PBS containing 2% human serum (buffer) and pelleted. A second wash with 5 mL of buffer was completed then cells were resuspended in 50 uL buffer per 10^5 cells. […] Cells were resuspended at 5×10^6 cells/mL in buffer and analyzed and sorted using a FACS Vantage (Beckton Dickenson) by the staff at the flow cytometry core facility (The Scripps Research Institute). Cells were collected directly into RLT lysis buffer (Qiagen) for subsequent isolation of total RNA for gene expression analysis by real-time quantitative PCR.

B1: Activin A: growth factor of the TGFβ superfamily, Nodal/Activin subgroup; definitive endoderm inducer (protein, UniProt P08476 311-426, looked up)
Inhibin beta A chain: GLECDGKVNICCKKQFFVSFKDIGWNDWIIAPSGYHANYCEGECPSHIAGTSGSSLSFHSTVINHYRMRGHSPFANLKSCCVPTKLRPMSMLYYDDGQNIIKKDIQNMIVEECGCS
B1 was tested, and the “SOX17 gene expression, dose response” value (hESCs (hESCyt-25); 0, 10, 30 or 100 ng/ml, 3 days adherent then 1, 3 and 5 days suspension culture, FIG. 11) was “dose-dependently increases”, the “relative levels of CXCR4 gene expression with increasing dose” value (hESCs (hESCyt-25); 0, 10 or 100 ng/mL, 7 days, FIG. 32) was “dramatically increased” and the CXCR4 expression (hESCs (hESCyt-25); 100 ng/mL activin A (A100) vs no exogenous activin A (NF), 6 days, FIG. 26) was “high”. The CXCR4 level (hESCs (hESCyt-25); 100 ng/mL activin A, 10% FBS condition, 6 days, FIG. 26) was “remarkable decrease”, the “mesoderm differentiation (expression of brachyury)” value (hESCs (hESCyt-25); 100 ng/ml, FIG. 14B) was “notable suppression” and the “SOX17 induction compared to no factor medium controls” value (hESCs (hESCyt-25); 4-day time point, 10% serum) was 5 fold. For the same molecule, the “expression of brachyury relative to untreated control cultures” value (hESCs (hESCyt-25); 10 and 30 ng/ml, later time points, FIG. 14B) was “maintain the expression of brachyury at later time points”, the “SOX17 gene expression relative to the undifferentiated control media (SR20)” value (hESCs (hESCyt-25); FIG. 7A) was “increases” and the “difference in the level of SOX17 mRNA expression, Activin A vs retinoic acid treated hESCs” value (hESCs (hESCyt-25); FIG. 7A) was 10 fold. For the same molecule, the “expression of the visceral endoderm marker AFP, dose response” value (hESCs (hESCyt-25); FIG. 13A) was “dose-dependent decrease”, the “expression of the neural marker ZIC1” value (hESCs (hESCyt-25); FIG. 14A) was “not a dose-dependent effect” and the “expression of MIXL1, GATA4 and HNF3b, dose response” value (hESCs (hESCyt-25); FIGS. 12A-C) was “dose-dependent increases”. For the same molecule, the “expression of SOX7 (primitive endoderm) and SPARC (parietal endoderm)” value (hESCs (hESCyt-25); FIGS. 13B-C) was “remain either unchanged or exhibit suppression at some time points”, the “induction of SOX17 gene expression vs. undifferentiated hESCs” value (hESCs (hESCyt-25); day 4 of differentiation, Activin A at 100 ng/ml, medium with 10% serum, FIG. 19) was 19 fold and the “SOX17 gene expression and cell number” value (hESCs (hESCyt-25); doses of 100 ng/mL or more) was “potently inducing”. The “suppression of AFP gene expression” value (hESCs (hESCyt-25)) was 6.8 fold, the “suppression of AFP gene expression” value (hESCs (hESCyt-25); listed as activin A) was “approximately 7 fold” and the “decrease in AFP antibody-labeled cell number” value (hESCs [1]) was “approximately 7 fold”. For the same molecule, the “number of CXCR4+ cells as dose is increased” value (hESCs [2]) was “increase dramatically”.
